Measured values taken from patent publication US20180319855A1, “GENETICALLY MUTATED AEQUORIN-BASED BIOSENSORS WITH EXTRA SENSITIVITY TO CALCIUM AND IMPROVED BIOLUMINESCENCE INTENSITY” (CENTRE NATIONAL DE LA RECHERCHE SCIENTIFIQUE (CNRS), priority 2015, published 2018).
Like-named read-outs stand apart in the source and are kept apart here.

What was measured:
[1] = Tsuzuki et al. 2005; cited from earlier work
[2] = Ca2+ sensitivity curves of reconstituted photoproteins (L/Lmax vs free Ca2+); format: biochemical; conditions: for EC50: read-out: Calcium sensitivity, EC50
Method: For in vitro reconstitution, the purified and concentrated samples of apoaequorin and redquorin mutant proteins were buffer-exchanged to 50 mM Tris-HCl (pH 7.5), 150 mM NaCl, 10 mM EGTA, 5 mM ß-mercaptoethanol, supplemented with 5 μM CLZ-f or CLZ-native and incubated overnight at 4° C., in the dark. The next day, samples were passed through molecular weight cut-offs (AmiconUitra MWCO, 10K and 50K, from Millipore), then resuspended in Zero-Ca^2+ buffer (30 mM MOPS, 100 mM KCl and 10 mM EGTA, pH 7.2) for calcium affinity, emission decay kinetics and spectral analysis assays. As for in cellulo reconstitution, HEK cells transiently expressing the proteins of apoaequorin and aporedquorin mutants were washed twice with Hank's Balanced Salt Solution (HBSS) and incubated in the dark, with 4 μM of the desired CLZ diluted in OptiMEM I medium (Gibco), for 2-3h at 37° C. and 5% CO2. Cells were washed once and maintained in HBSS at 37° C. for 20 min before the experiment.
Functional Analysis of Aequorin Mutants and Fusions Ca^2+ Sensitivity Curves.
Purified and reconstituted samples with CLZ-f or CLZ-native already buffered-exchanged to zero-calcium buffer ensured to minimize calcium contamination that could interfere with the measurements. Fifteen microliter aliquot of photoprotein samples (concentration range, 50 to 90 ng/μl) was placed in a home-made luminometer and mixed with 300 μl solution containing the desired concentration of free-Ca^2+. The solutions of EGTA-buffered with varying free-Ca^2+ prepared according to the manufacturer instruction for the kit (Molecular Probes, Invitrogen). Integration of the luminescence emission (per second) was measured for 20 seconds (background) before injecting a solution with known [free-Ca^2+] and lasted until stable or decaying signal (at final-phase) was obtained. At this point, 400 μl of a saturating calcium solution (30 mM MOPS, 100 mM CaCl2, pH 7.2) was rapidly injected (less than 30 ms) and light integration continued until all aequorin had been consumed and light intensity had gone back to background signal. Luminescence intensity (L) at different [Ca^2+] was taken as the response peak value in case of decaying signal or as the stable value in case of stable emission. Lmax, was measured by integrating all remaining luminescence signal from that moment (L value) to the end of the experiment. The EC50 values were extracted from a sigmoidal dose-response fit (variable slope) using GraphPad Prism software.

[3] = Thermostability: relative bioluminescence activity after 30 min incubation; format: physicochemical; conditions: CLZ-f
Method: Thermostability of aequorin and redquorin mutant with increased affinity for calcium were compared to wt-aequorin (FIG. 5). The purified photoprotein samples were reconstituted with CLZ-f (as detailed earlier) and let to calibrate at room temperature (20-24° C.) for 20 min before taken the first measurement of total counts using saturating calcium solution (50 mM Tris-HCl, 100 mM CaCl2, pH 7.5). Samples were then incubated at two different temperatures (30 to 40° C.) for 30 min, and let equilibrate at room temperature for 15 minbefore taken the second measurement of total counts in the sample. The relative bioluminescence activity at each temperature was calculated by the ratio 2nd counts (at target T° C.)/1st counts (at initial T° C.) multiplied by 100.
Table 6 highlights the analysis of thermostability data obtained at two temperatures for aequorin and redquorin mutants, as well as CitA and GA. The values represent the degree of change in luminescence activity compared to wt-aeq, at each temperature. All values are relative to wt-aequorin (at each temperature) and were calculated by dividing the obtained data for each mutant/variant by the data for wt-aeq (as reference). The data were taken from FIG. 5.

[4] = tested on: endogenous P2Y2 receptor; assay: Assay of activation of endogenous P2Y2 receptor by ATP in CHO cells stably expressing photoproteins; format: cell-based; conditions: CHO cells stably expressing the sensor; for EC50: ATP dose-response, read-out: EC50 (half-maximal effective concentration of ATP for P2Y2 activation)
Method: Stably prepared CHO cells were loaded with 5 μM coelenterazine in 130 mM NaCl, 5 mM KCl, 1 mM MgCl2, 2 mM CaCl2, 5 mM NaHCO3, 20 mM N-(2-hydroxyethyl) piperazine-N′-ethanesulfonic acid (HEPES), pH 7.4 for 4 h at ambient temperature.
To produce stable CHO cell lines, the cells transfected with GA and Redquorin variant plasmids were seeded on six-well plates and grown in the same medium with addition of Geneticin sulfate (G418) (Gibco, UK) at 1 mg/ml under the same conditions with replacement of the medium by fresh medium every 2 days. After 7-10 days of selection, CHO cells were transferred into a medium without antibiotic. To select clones with the highest bioluminescence activity, one run of limiting dilution was performed. CHO cells after G418 selection were seeded on 96-well plates (approximately 0.5 cells per well) and grown in DMEM/F12 medium supplemented with 10% fetal calf serum at 37° C., 5% CO2 for up to 80-90% confluence. Before the bioluminescence measurements, the plates with monoclones of CHO cells expressing the corresponding photoprotein were duplicated and grown for up to 90-100% confluence. Then, the medium was removed and cells were loaded with coelenterazine, and bioluminescence in each well was measured according to the procedure described earlier. As a result, the CHO cell clones with the highest bioluminescence activity were selected.
Assay of Activation of Endogenous P2Y2 Receptor in CHO Cells
The CHO cell lines stably expressing each photoprotein were used in assay of activation of endogenous P2Y2 receptor by ATP. The day before the measurements, the corresponding cells were seeded on 96-well plates with DMEM/F12 medium supplemented with 10% fetal calf serum and were grown at 37° C. with 5% CO2 for up to 90-100% confluence. Then, the medium was replaced by 100 μl of coelenterazine solution per well (5 μM coelenterazine in 130 mM NaCl, 5 mM KCl, 1 mM MgCl2, 2 mM CaCl2, 5 mM NaHCO3, 20 mM HEPES, pH7.4) and the cells were incubated at 23° C. for 4 h. Emission from photoproteins in the cells was measured using a Mithras LB 940 plate luminometer. The ATP was injected at a given concentration to trigger an intracellular Ca^2+ response in the cells and the measurement started immediately. The bioluminescence was integrated over a time interval of 0.05 s for 30 s.

[5] = CLZ-f, L/Lmax compared to Aeq-wt
[6] = aequorin proteins reconstituted with CLZ-f, sigmoidal curve fit, mean ± SD, n at least 3
[7] = CLZ-f, redquorin series, CitA, GA
[8] = CLZ-native, redquorin series, CitA, GA

Row | Molecule | emission half-life (t½) [1] [s] | Relative intensity at pCa 6.5 [2, 5] | Relative intensity at pCa 7.2 [2, 5] | EC50 [2, 6] [nM] | Thermostability, luminescence activity relative to wt-aequorin ([3]; 30° C. for 30 min) | Thermostability, luminescence activity relative to wt-aequorin ([3]; 40° C. for 30 min) | EC50 [2, 7] [nM] | Relative intensity at pCa 6.5 ([2]; CLZ-f, relative to Redq) | Relative intensity at pCa 7.2 ([2]; CLZ-f, relative to Redq) | EC50 [2, 8] [nM] | Relative intensity at pCa 6.5 ([2]; CLZ-native, relative to Redq) | Relative intensity at pCa 7.2 ([2]; CLZ-native, relative to Redq) | [ATP] DL (detection limit) [4] [nM] | EC50 [4] [nM]
1 | E35G: aequorin mutation from random mutagenesis reported by Tsuzuki et al. 2005 (protein) SKLTSDFDNPRWIGRHKHMFNFLDVNHNGKISLDGMVYKASDIVINNLGATPEQAKRHKDAVEAFFGGAGMKYGVETDWPAYIEGWKKLATDELEKYAKNEPTLIRIWGDALFDIVDKDQNGAITLDEWKAYTKAAGIIQSSEDCEETFRVCDIDESGQLDVDEMTRQHLGFWYTMDPACEKLYGGAVP | 40 | – | – | – | – | – | – | – | – | – | – | – | – | –
2 | V44A: aequorin mutant, valine 44 replaced by alanine (protein) SKLTSDFDNPRWIGRHKHMFNFLDVNHNGKISLDEMVYKASDIAINNLGATPEQAKRHKDAVEAFFGGAGMKYGVETDWPAYIEGWKKLATDELEKYAKNEPTLIRIWGDALFDIVDKDQNGAITLDEWKAYTKAAGIIQSSEDCEETFRVCDIDESGQLDVDEMTRQHLGFWYTMDPACEKLYGGAVP | 34 | – | – | – | – | – | – | – | – | – | – | – | – | –
3 | QD + AD: apoaequorin double mutant Q159D + A123D (SEQ ID NO:15) (protein, mutant aequorin) SKLTSDFDNPRWIGRHKHMFNFLDVNHNGKISLDEMVYKASDIVINNLGATPEQAKRHKDAVEAFFGGAGMKYGVETDWPAYIEGWKKLATDELEKYAKNEPTLIRIWGDALFDIVDKDQNGDITLDEWKAYTKAAGIIQSSEDCEETFRVCDIDESGDLDVDEMTRQHLGFWYTMDPACEKLYGGAVP | – | 26.2 | 15.0 | 271 ± 15 | 0.97 | 0.94 | – | – | – | – | – | – | – | –
4 | Q159G: apoaequorin mutant, glutamine 159 replaced by glycine (SEQ ID NO:7) (protein, mutant aequorin) SKLTSDFDNPRWIGRHKHMFNFLDVNHNGKISLDEMVYKASDIVINNLGATPEQAKRHKDAVEAFFGGAGMKYGVETDWPAYIEGWKKLATDELEKYAKNEPTLIRIWGDALFDIVDKDQNGAITLDEWKAYTKAAGIIQSSEDCEETFRVCDIDESGGLDVDEMTRQHLGFWYTMDPACEKLYGGAVP | – | 3.3 | 3.2 | 492 ± 10 | 0.96 | 0.92 | – | – | – | – | – | – | – | –
5 | Redq/QT + AD: aporedquorin mutant Q159T + A123D (SEQ ID NO:25) (protein, mutant aequorin) MVSKGEEVIKEFMRFKVRMEGSMNGHEFEIEGEGEGRPYEGTQTAKLKVTKGGPLPFAWDILSPQFMYGSKAYVKHPADIPDYKKLSFPEGFKWERVMNFEDGGLVTVTQDSSLQDGTLIYKVKMRGTNFPPDGPVMQKKTMGWEASTERLYPRDGVLKGEIHQALKLKDGGHYLVEFKTIYMAKKPVQLPGYYYVDTKLDITSHNEDYTIVEQYERSEGRHHLFLGHGTGSTGSGSSGTASSEDNNMAVIKEFMRFKVRMEGSMNGHEFEIEGEGEGRPYEGTQTAKLKVTKGGPLPFAWDILSPQFMYGSKAYVKHPADIPDYKKLSFPEGFKWERVMNFEDGGLVTVTQDSSLQDGTLIYKVKMRGTNFPPDGPVMQKKTMGWEASTERLYPRDGVLKGEIHQALKLKDGGHYLVEFKTIYMAKKPVQLPGYYYVDTKLDITSHNEDYTIVEQYERSEGRHHLFLSGFDNPRWIGRHKHMFNFLDVNHNGKISLDEMVYKASDIVINNLGATPEQAKRHKDAVEAFFGGAGMKYGVETDWPAYIEGWKKLATDELEKYAKNEPTLIRIWGDALFDIVDKDQNGDITLDEWKAYTKAAGIIQSSEDCEETFRVCDIDESGTLDVDEMTRQHLGFWYTMDPACEKLYGGAVP | – | – | – | – | 0.94 | 1.00 | 336 ± 11 | 14.4 | 7.4 | 577 ± 33 | 14.4 | 10.0 | 1230 ± 51 | 3100 ± 400
6 | Redq/QD + AT: aporedquorin mutant Q159D + A179T (SEQ ID NO:23) (protein, mutant aequorin) MVSKGEEVIKEFMRFKVRMEGSMNGHEFEIEGEGEGRPYEGTQTAKLKVTKGGPLPFAWDILSPQFMYGSKAYVKHPADIPDYKKLSFPEGFKWERVMNFEDGGLVTVTQDSSLQDGTLIYKVKMRGTNFPPDGPVMQKKTMGWEASTERLYPRDGVLKGEIHQALKLKDGGHYLVEFKTIYMAKKPVQLPGYYYVDTKLDITSHNEDYTIVEQYERSEGRHHLFLGHGTGSTGSGSSGTASSEDNNMAVIKEFMRFKVRMEGSMNGHEFEIEGEGEGRPYEGTQTAKLKVTKGGPLPFAWDILSPQFMYGSKAYVKHPADIPDYKKLSFPEGFKWERVMNFEDGGLVTVTQDSSLQDGTLIYKVKMRGTNFPPDGPVMQKKTMGWEASTERLYPRDGVLKGEIHQALKLKDGGHYLVEFKTIYMAKKPVQLPGYYYVDTKLDITSHNEDYTIVEQYERSEGRHHLFLSGFDNPRWIGRHKHMFNFLDVNHNGKISLDEMVYKASDIVINNLGATPEQAKRHKDAVEAFFGGAGMKYGVETDWPAYIEGWKKLATDELEKYAKNEPTLIRIWGDALFDIVDKDQNGAITLDEWKAYTKAAGIIQSSEDCEETFRVCDIDESGDLDVDEMTRQHLGFWYTMDPTCEKLYGGAVP | – | – | – | – | 1.00 | 1.03 | 252 ± 40 | 58.5 | 48.3 | 515 ± 20 | 32.1 | 24.5 | 562 ± 20 | 2000
